Measured values taken from patent publication US20060121570A1 (published 2006).

B1: circular peptide CSFGRTDQRNC derived from the HCDR3 of MTF-32 (peptide)
peptide: CSFGRTDQRNC
HELM: PEPTIDE1{[ac].C.S.F.G.R.T.D.Q.R.N.C.[am]}$PEPTIDE1,PEPTIDE1,2:R3-12:R3$$$V2.0
SMILES: CC(=O)N[C@H]1CSSC[C@@H](C(N)=O)NC(=O)[C@H](CC(N)=O)NC(=O)[C@H](CCCNC(=N)N)NC(=O)[C@H](CCC(N)=O)NC(=O)[C@H](CC(=O)O)NC(=O)[C@H]([C@@H](C)O)NC(=O)[C@H](CCCNC(=N)N)NC(=O)CNC(=O)[C@H](Cc2ccccc2)NC(=O)[C@H](CO)NC1=O
notes: also called peptide 32 (circular)
B2: circular peptide CSFGRNDSRNC derived from the HCDR3 of MTF-40 (peptide)
peptide: CSFGRNDSRNC
HELM: PEPTIDE1{[ac].C.S.F.G.R.N.D.S.R.N.C.[am]}$PEPTIDE1,PEPTIDE1,2:R3-12:R3$$$V2.0
SMILES: CC(=O)N[C@H]1CSSC[C@@H](C(N)=O)NC(=O)[C@H](CC(N)=O)NC(=O)[C@H](CCCNC(=N)N)NC(=O)[C@H](CO)NC(=O)[C@H](CC(=O)O)NC(=O)[C@H](CC(N)=O)NC(=O)[C@H](CCCNC(=N)N)NC(=O)CNC(=O)[C@H](Cc2ccccc2)NC(=O)[C@H](CO)NC1=O
notes: also called peptide 40 (circular)
B3: fibrinogen (ligand)
chain 1: ADSGEGDFLAEGGGVRGPRVVERHQSACKDSDWPFCSDEDWNYKCPSGCRMKGLIDEVNQDFTNRINKLKNSLFEYQKNNKDSHSLTTNIMEILRGDFSSANNRDNTYNRVSEDLRSRIEVLKRKVIEKVQHIQLLQKNVRAQLVDMKRLEVDIDIKIRSCRGSCSRALAREVDLKDYEDQQKQLEQVIAKDLLPSRDRQHLPLIKMKPVPDLVPGNFKSQLQKVPPEWKALTDMPQMRMELERPGGNEITRGGSTSYGTGSETESPRNPSSAGSWNSGSSGPGSTGNRNPGSSGTGGTATWKPGSSGPGSTGSWNSGSSGTGSTGNQNPGSPRPGSTGTWNPGSSERGSAGHWTSESSVSGSTGQWHSESGSFRPDSPGSGNARPNNPDWGTFEEVSGNVSPGTRREYHTEKLVTSKGDKELRTGKEKVTSGSTTTTRRSCSKTVTKTVIGPDGHKEVTKEVVTSEDGSDCPEAMDLGTLSGIGTLDGFRHRHPDEAAFFDTASTGKTFPGFFSPMLGEFVSETESRGSESGIFTNTKESSSHHPGIAEFPSRGKSSSYSKQFTSSTSYNRGDSTFESKSYKMADEAGSEADHEGTHSTKRGHAKSRPV
chain 2: QGVNDNEEGFFSARGHRPLDKKREEAPSLRPAPPPISGGGYRARPAKAAATQKKVERKAPDAGGCLHADPDLGVLCPTGCQLQEALLQQERPIRNSVDELNNNVEAVSQTSSSSFQYMYLLKDLWQKRQKQVKDNENVVNEYSSELEKHQLYIDETVNSNIPTNLRVLRSILENLRSKIQKLESDVSAQMEYCRTPCTVSCNIPVVSGKECEEIIRKGGETSEMYLIQPDSSVKPYRVYCDMNTENGGWTVIQNRQDGSVDFGRKWDPYKQGFGNVATNTDGKNYCGLPGEYWLGNDKISQLTRMGPTELLIEMEDWKGDKVKAHYGGFTVQNEANKYQISVNKYRGTAGNALMDGASQLMGENRTMTIHNGMFFSTYDRDNDGWLTSDPRKQCSKEDGGGWWYNRCHAANPNGRYYWGGQYTWDMAKHGTDDGVVWMNWKGSWYSMRKMSMKIRPFFPQQ
chain 3: YVATRDNCCILDERFGSYCPTTCGIADFLSTYQTKVDKDLQSLEDILHQVENKTSEVKQLIKAIQLTYNPDESSKPNMIDAATLKSRKMLEEIMKYEASILTHDSSIRYLQEIYNSNNQKIVNLKEKVAQLEAQCQEPCKDTVQIHDITGKDCQDIANKGAKQSGLYFIKPLKANQQFLVYCEIDGSGNGWTVFQKRLDGSVDFKKNWIQYKEGFGHLSPTGTTEFWLGNEKIHLISTQSAIPYALRVELEDWNGRTSTADYAMFKVGPEADKYRLTYAYFAGGDAGDAFDGFDFGDDPSDKFFTSHNGMQFSTWDNDNDKFEGNCAEQDGSGWWMNKCHAGHLNGVYYQGGTYSKASTPNGYDNGIIWATWKTRWYSMKKTTMKIIPFNRLTIGEGQQHHLGGAKQAGDV

Columns and labels:
[1] = molecular target: T1, platelet integrin αIIbβ3 (human platelet glycoprotein gpIIb/IIIa), purified (human, UniProt P08514 32-1039; P05106 27-788); assay: inhibition of 125I-fibrinogen binding to purified αIIbβ3
T1 construct: mature

[2] = molecular target: T1, platelet integrin αIIbβ3 (human …); assay: SPR (BIAcore), αIIbβ3 immobilized

Binder | IC50 [1] | kon [2]
Ac-GCSFGRNDSRNCY-NH2 (cysteine pairing not given here, also called peptide 40 (linear)) [linear peptide GCSFGRNDSRNCY derived from the HCDR3 of MTF-40] | 500 nM | –
Ac-GCSFGRTDQRNCY-NH2 (cysteine pairing not given here, also called peptide 32 (linear)) [linear peptide GCSFGRTDQRNCY derived from the HCDR3 of MTF-32] | 2000 nM | –
B1 | 2000 nM | –
B2 | 500 nM | –
B3 | – | 600000 M⁻¹ s⁻¹
